T1: mouse FcγRIII extracellular domain, C-terminally His-tagged (mouse, UniProt P08508 31-215)
T1 construct: the whole entry is named; also called mFcγRIII; mFcgRIII
T1 chain: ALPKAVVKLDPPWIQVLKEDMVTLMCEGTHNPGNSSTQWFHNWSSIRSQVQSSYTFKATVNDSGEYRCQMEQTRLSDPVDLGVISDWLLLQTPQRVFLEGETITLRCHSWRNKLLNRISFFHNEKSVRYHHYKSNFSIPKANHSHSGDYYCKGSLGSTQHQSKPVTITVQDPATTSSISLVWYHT

T2: mouse FcγRII extracellular domain, C-terminally His-tagged (mouse, UniProt P08101 30-210)
T2 construct: the whole entry is named; also called mFcγRII; mFcgRII
T2 sequence: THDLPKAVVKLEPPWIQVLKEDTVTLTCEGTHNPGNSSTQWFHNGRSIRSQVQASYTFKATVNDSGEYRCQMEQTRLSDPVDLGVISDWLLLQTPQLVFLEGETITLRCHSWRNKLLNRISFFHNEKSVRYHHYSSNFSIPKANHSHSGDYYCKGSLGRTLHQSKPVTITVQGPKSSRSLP


Tests used:
[1] = target: T1, mouse FcγRIII extracellular domain, …; assay: SPR Biacore T200, KD ratio
Source text: (§1) The antibody H chain variable region used was the variable region H237 (SEQ ID NO: 1) of the H chain VH3-IgG1 of the anti-IL-6 receptor antibody Fv4-IgG1 described in WO2009/125825. The antibody L chain commonly used was the L chain MRAL-k0 (SEQ ID NO: 2) of the anti-IL-6 receptor antibody tocilizumab. […] The resulting variant groups were designated as MB397 variants and MB390 variants, respectively. These variants were expressed and purified by the method of Reference Example 1 and evaluated for their binding to mFcγRII and mFcγRIII by the method of Reference Example 2 using Biacore T200.
(§2) Each altered antibody was analyzed for its interaction with each Fcγ receptor prepared above using Biacore T100 (GE Healthcare Japan Corp.), Biacore T200 (GE Healthcare Japan Corp.), Biacore A100, or Biacore 4000. The running buffer used was HBS-EP+ (GE Healthcare Japan Corp.). The assay temperature was set to 25° C. The sensor chips used were chips prepared by immobilizing Protein L (ACTIGEN or BioVision) onto Series S Sensor Chip CM5 (GE Healthcare Japan Corp.) or Series S Sensor Chip CM4 (GE Healthcare Japan Corp.) by the amine coupling method.
(§3) In order to calculate the KD value of each altered antibody for FcγR, kinetic analysis was conducted according to the following method: first, the antibody of interest was captured onto any of these chips and allowed to interact with mFcγR diluted with a running buffer. For the obtained sensorgram, the assay results were globally fit into the 1:1 Langmuir binding model using Biacore Evaluation Software to calculate an association rate constant ka (L/mol/s) and a dissociation rate constant kd (1/s). From these values, the dissociation constant KD (mol/L) was calculated.

[2] = target: T2, mouse FcγRII extracellular domain, …; assay: SPR Biacore T200, KD ratio
Source text: as §1, §2, §3

Row | Binder | relative mFcγRIII-binding activity (MB397 = 1) [1] | relative mFcγRIII-binding activity (mIgG1 = 1) [1] | relative mFcγRII-binding activity (MB397 = 1) [2] | relative mFcγRII-binding activity (mIgG1 = 1) [2] | relative mFcγRIII-binding activity (MB390 = 1) [1] | relative mFcγRII-binding activity (MB390 = 1) [2]
1 | H237-MB462/MRAL-k0 (antibody, mouse IgG1, kappa, copies: 2 + 2) heavy: QVQLQESGPGLVKPSETLSLTCAVSGHSISHDHAWSWVRQPPGEGLEWIGFISYSGITNYNPSLQGRVTISRDNSKNTLYLQMNSLRAEDTAVYYCARSLARTTAMDYWGEGTLVTVSSAKTTPPSVYPLAPGSAAQTNSMVTLGCLVKGYFPEPVTVTWNSGSLSSGVHTFPAVLQSDLYTLSSSVTVPSSTWPSETVTCNVAHPASSTKVDKKIVPRDCGCKPCICETYEVEDVFIFPPKPKDVLTITLTPKVTCVVVDISKDDPEVQFSWFVDDVEVHTAQTQPREEQFNSTFRSVSELPIMHQDWLNGKEFKCRVNSAAFPAPIEKTIKKTKGRPKAPQVYTIPPPKEQMAKDKVSLTCMITDFFPEDITVEWQWNGQPAENYKNTQPIMDTDGSYFVYSKLNVQKSNWEAGNTFTCSVLHEGLHNHHTEKSLSHSPGK light: not shown | 0.78 fold | 15.1 fold | 0.39 fold | 214 fold | – | –
2 | H237-MB466/MRAL-k0 (antibody, mouse IgG1, kappa, copies: 2 + 2) heavy: QVQLQESGPGLVKPSETLSLTCAVSGHSISHDHAWSWVRQPPGEGLEWIGFISYSGITNYNPSLQGRVTISRDNSKNTLYLQMNSLRAEDTAVYYCARSLARTTAMDYWGEGTLVTVSSAKTTPPSVYPLAPGSAAQTNSMVTLGCLVKGYFPEPVTVTWNSGSLSSGVHTFPAVLQSDLYTLSSSVTVPSSTWPSETVTCNVAHPASSTKVDKKIVPRDCGCKPCICETYEVEDVFIFPPKPKDVLTITLTPKVTCVVVDISKDDPEVQFSWFVDDVEVHTAQTQPREEQFNSTFRSVSELPIMHQDWLNGKEFKCRVNSDAFPAPIEKTISKTKGRPKAPQVYTIPPPKEQMAKDKVSLTCMITDFFPEDITVEWQWNGQPAENYKNTQPIMDTDGSYFVYSKLNVQKSNWEAGNTFTCSVLHEGLHNHHTEKSLSHSPGK light: not shown | 1.66 fold | 32 fold | 0.81 fold | 449 fold | – | –
3 | H237-MB479/MRAL-k0 (antibody, mouse IgG1, kappa, copies: 2 + 2) heavy: QVQLQESGPGLVKPSETLSLTCAVSGHSISHDHAWSWVRQPPGEGLEWIGFISYSGITNYNPSLQGRVTISRDNSKNTLYLQMNSLRAEDTAVYYCARSLARTTAMDYWGEGTLVTVSSAKTTPPSVYPLAPGSAAQTNSMVTLGCLVKGYFPEPVTVTWNSGSLSSGVHTFPAVLQSDLYTLSSSVTVPSSTWPSETVTCNVAHPASSTKVDKKIVPRDCGCKPCICEPNEVEDVFIFPPKPKDVLTITLTPKVTCVVVDISKDDPEVQFSWFVDDVEVHTAQTQPREEQFNSTFRSVSELPIMHQDWLNGKEFKCRVNSDAFPAPIEKTISKTKGRPKAPQVYTIPPPKEQMAKDKVSLTCMITDFFPEDITVEWQWNGQPAENYKNTQPIMDTDGSYFVYSKLNVQKSNWEAGNTFTCSVLHEGLHNHHTEKSLSHSPGK light: not shown | – | 13.8 fold | – | 734 fold | 1.16 fold | 1.41 fold
4 | H237-MB478/MRAL-k0 (antibody, mouse IgG1, kappa, copies: 2 + 2) heavy: QVQLQESGPGLVKPSETLSLTCAVSGHSISHDHAWSWVRQPPGEGLEWIGFISYSGITNYNPSLQGRVTISRDNSKNTLYLQMNSLRAEDTAVYYCARSLARTTAMDYWGEGTLVTVSSAKTTPPSVYPLAPGSAAQTNSMVTLGCLVKGYFPEPVTVTWNSGSLSSGVHTFPAVLQSDLYTLSSSVTVPSSTWPSETVTCNVAHPASSTKVDKKIVPRDCGCKPCICEPNEVEDVFIFPPKPKDVLTITLTPKVTCVVVDISKDDPEVQFSWFVDDVEVHTAQTQPREELFNSTFRSVSELPIMHQDWLNGKEFKCRVNSAAFPAPIEKTISKTKGRPKAPQVYTIPPPKEQMAKDKVSLTCMITDFFPEDITVEWQWNGQPAENYKNTQPIMDTDGSYFVYSKLNVQKSNWEAGNTFTCSVLHEGLHNHHTEKSLSHSPGK light: not shown | – | 4.7 fold | – | 254 fold | 0.39 fold | 0.49 fold
5 | H237-MB464/MRAL-k0 (antibody, mouse IgG1, kappa, copies: 2 + 2) heavy: QVQLQESGPGLVKPSETLSLTCAVSGHSISHDHAWSWVRQPPGEGLEWIGFISYSGITNYNPSLQGRVTISRDNSKNTLYLQMNSLRAEDTAVYYCARSLARTTAMDYWGEGTLVTVSSAKTTPPSVYPLAPGSAAQTNSMVTLGCLVKGYFPEPVTVTWNSGSLSSGVHTFPAVLQSDLYTLSSSVTVPSSTWPSETVTCNVAHPASSTKVDKKIVPRDCGCKPCICETYEVEDVFIFPPKPKDVLTITLTPKVTCVVVDIAKDDPEVQFSWFVDDVEVHTAQTQPREEQFNSTFRSVSELPIMHQDWLNGKEFKCRVNSAAFPAPIEKTISKTKGRPKAPQVYTIPPPKEQMAKDKVSLTCMITDFFPEDITVEWQWNGQPAENYKNTQPIMDTDGSYFVYSKLNVQKSNWEAGNTFTCSVLHEGLHNHHTEKSLSHSPGK light: not shown | 0.39 fold | 7.6 fold | 0.16 fold | 88.5 fold | – | –
6 | H237-MB467/MRAL-k0 (antibody, mouse IgG1, kappa, copies: 2 + 2) heavy: QVQLQESGPGLVKPSETLSLTCAVSGHSISHDHAWSWVRQPPGEGLEWIGFISYSGITNYNPSLQGRVTISRDNSKNTLYLQMNSLRAEDTAVYYCARSLARTTAMDYWGEGTLVTVSSAKTTPPSVYPLAPGSAAQTNSMVTLGCLVKGYFPEPVTVTWNSGSLSSGVHTFPAVLQSDLYTLSSSVTVPSSTWPSETVTCNVAHPASSTKVDKKIVPRDCGCKPCICETYEVEDVFIFPPKPKDVLTITLTPKVTCVVVDISKDDPEVQFSWFVDDVEVHTAQTQPREEQFNSTFRSVSELPIMHQDWLNGKEFKCRVNSAGFPAPIEKTISKTKGRPKAPQVYTIPPPKEQMAKDKVSLTCMITDFFPEDITVEWQWNGQPAENYKNTQPIMDTDGSYFVYSKLNVQKSNWEAGNTFTCSVLHEGLHNHHTEKSLSHSPGK light: not shown | 0.99 fold | 19.2 fold | 0.49 fold | 271 fold | – | –
7 | H237-MB477/MRAL-k0 (antibody, mouse IgG1, kappa, copies: 2 + 2) heavy: QVQLQESGPGLVKPSETLSLTCAVSGHSISHDHAWSWVRQPPGEGLEWIGFISYSGITNYNPSLQGRVTISRDNSKNTLYLQMNSLRAEDTAVYYCARSLARTTAMDYWGEGTLVTVSSAKTTPPSVYPLAPGSAAQTNSMVTLGCLVKGYFPEPVTVTWNSGSLSSGVHTFPAVLQSDLYTLSSSVTVPSSTWPSETVTCNVAHPASSTKVDKKIVPRDCGCKPCICEPNEVEDVFIFPPKPKDVLTITLTPKVTCVVVDIAKDDPEVQFSWFVDDVEVHTAQTQPREEQFNSTFRSVSELPIMHQDWLNGKEFKCRVNSAAFPAPIEKTISKTKGRPKAPQVYTIPPPKEQMAKDKVSLTCMITDFFPEDITVEWQWNGQPAENYKNTQPIMDTDGSYFVYSKLNVQKSNWEAGNTFTCSVLHEGLHNHHTEKSLSHSPGK light: not shown | – | 3 fold | – | 196 fold | 0.25 fold | 0.38 fold
8 | H237-MB463/MRAL-k0 (antibody, mouse IgG1, kappa, copies: 2 + 2) heavy: QVQLQESGPGLVKPSETLSLTCAVSGHSISHDHAWSWVRQPPGEGLEWIGFISYSGITNYNPSLQGRVTISRDNSKNTLYLQMNSLRAEDTAVYYCARSLARTTAMDYWGEGTLVTVSSAKTTPPSVYPLAPGSAAQTNSMVTLGCLVKGYFPEPVTVTWNSGSLSSGVHTFPAVLQSDLYTLSSSVTVPSSTWPSETVTCNVAHPASSTKVDKKIVPRDCGCKPCICETYEVEDVFIFPPKPKDVLTITLTPKVTCVVVDISKDDPEVQFSWFVDDVEVHTAQTQPREEQFNSTFRSVSELPIMHQDWLNGKEFKCRVNSAAFPAPIEKTIWKTKGRPKAPQVYTIPPPKEQMAKDKVSLTCMITDFFPEDITVEWQWNGQPAENYKNTQPIMDTDGSYFVYSKLNVQKSNWEAGNTFTCSVLHEGLHNHHTEKSLSHSPGK light: not shown | 1.12 fold | 21.6 fold | 0.55 fold | 307 fold | – | –
9 | H237-MB465/MRAL-k0 (antibody, mouse IgG1, kappa, copies: 2 + 2) heavy: QVQLQESGPGLVKPSETLSLTCAVSGHSISHDHAWSWVRQPPGEGLEWIGFISYSGITNYNPSLQGRVTISRDNSKNTLYLQMNSLRAEDTAVYYCARSLARTTAMDYWGEGTLVTVSSAKTTPPSVYPLAPGSAAQTNSMVTLGCLVKGYFPEPVTVTWNSGSLSSGVHTFPAVLQSDLYTLSSSVTVPSSTWPSETVTCNVAHPASSTKVDKKIVPRDCGCKPCICETYEVEDVFIFPPKPKDVLTITLTPKVTCVVVDISKDDPEVQFSWFVDDVEVHTAQTQPREELFNSTFRSVSELPIMHQDWLNGKEFKCRVNSAAFPAPIEKTISKTKGRPKAPQVYTIPPPKEQMAKDKVSLTCMITDFFPEDITVEWQWNGQPAENYKNTQPIMDTDGSYFVYSKLNVQKSNWEAGNTFTCSVLHEGLHNHHTEKSLSHSPGK light: not shown | 0.77 fold | 15 fold | 0.35 fold | 192 fold | – | –

From patent US20150203577A1 (Chugai, published 2015)
